Measurements reported in article PMC12574955, “The Ync13–Rga7–Rng10 complex selectively coordinates secretory vesicle trafficking and secondary septum formation during cytokinesis” (PLOS Biology, 2025).

Biological target: T1, MBP-Ync13-6xHis (Schizosaccharomyces pombe, UniProt O13683 1-1237)
T1 construct: Ync13, Munc13/UNC-13 family protein of Schizosaccharomyces pombe; FL cDNA in pET21a-MBP; MBP-TEV-GGSGGS precedes Ync13; also called MBP-Ync13-6His; not shown: MBP, N-terminal, kept; His6, C-terminal, kept
T1 sequence (looked up): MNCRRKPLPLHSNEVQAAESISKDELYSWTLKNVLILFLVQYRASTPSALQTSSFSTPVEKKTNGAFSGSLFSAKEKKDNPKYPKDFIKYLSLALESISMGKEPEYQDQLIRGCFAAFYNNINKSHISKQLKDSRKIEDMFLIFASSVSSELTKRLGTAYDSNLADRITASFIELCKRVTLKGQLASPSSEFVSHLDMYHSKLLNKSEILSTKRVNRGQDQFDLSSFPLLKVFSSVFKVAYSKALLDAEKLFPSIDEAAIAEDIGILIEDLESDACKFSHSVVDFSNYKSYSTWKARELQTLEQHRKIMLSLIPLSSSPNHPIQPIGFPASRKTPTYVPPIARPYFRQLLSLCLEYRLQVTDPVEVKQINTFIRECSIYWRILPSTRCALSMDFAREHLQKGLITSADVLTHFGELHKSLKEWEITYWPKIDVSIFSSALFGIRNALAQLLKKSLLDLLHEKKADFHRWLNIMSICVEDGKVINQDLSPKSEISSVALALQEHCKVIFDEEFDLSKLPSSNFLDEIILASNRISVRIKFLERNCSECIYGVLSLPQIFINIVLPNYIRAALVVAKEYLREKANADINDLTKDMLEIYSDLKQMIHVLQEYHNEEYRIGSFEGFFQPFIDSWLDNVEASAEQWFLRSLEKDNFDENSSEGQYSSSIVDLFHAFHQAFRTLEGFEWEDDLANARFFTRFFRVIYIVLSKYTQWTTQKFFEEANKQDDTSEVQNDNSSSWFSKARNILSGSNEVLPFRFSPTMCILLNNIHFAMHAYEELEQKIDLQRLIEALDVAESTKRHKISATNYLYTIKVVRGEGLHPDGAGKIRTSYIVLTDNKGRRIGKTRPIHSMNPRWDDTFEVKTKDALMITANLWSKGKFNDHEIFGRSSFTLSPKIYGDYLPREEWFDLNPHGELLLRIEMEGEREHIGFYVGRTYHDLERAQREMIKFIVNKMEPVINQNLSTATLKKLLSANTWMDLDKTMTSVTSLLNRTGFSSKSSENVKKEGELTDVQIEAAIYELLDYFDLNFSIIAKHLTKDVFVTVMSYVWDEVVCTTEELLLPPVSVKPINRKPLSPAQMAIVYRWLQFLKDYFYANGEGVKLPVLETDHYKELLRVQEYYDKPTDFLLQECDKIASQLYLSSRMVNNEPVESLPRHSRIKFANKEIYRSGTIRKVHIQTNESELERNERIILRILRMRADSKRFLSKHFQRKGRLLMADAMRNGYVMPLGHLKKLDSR
Assay: supernatant depletion assay; Rga7-6xHis at 4 µM titrated with MBP-Ync13-6xHis immobilized on Cobalt beads; beads pelleted at 16,000g, supernatant on SDS-PAGE, Coomassie, bound fraction fitted
Conditions: both partners purified

Kd: 10 µM
B1: Rga7-6xHis (natural protein, Schizosaccharomyces pombe, UniProt O94466 1-695, looked up)
chain: MLSAPSSSTTPASPPTSPPNTTSSDDFAVLKEPKVEAILNSELGLAILNDRIKDYLLTCKELAGFFKKRSILEEESGKNLQKLAKSYLETFQSKHHSPQSFSASVITSMEIHEQLANHSLTLQKTLSAFSDQVIEFHKNAERKRKSIKEYAKKQENAYLEAVMQMDKSKSRFKGAETEYNRALDNKNTGDSQKKVGFFKPKSNAQLTKLEDEARLKAENAESDMHSKIENAQNVQKQLLCIHRPNYIKQFFSLQREIESSLIANYLRYTKLCESNTLLNGLTIRPQKPTPTNCGLQHALDNINANTDFVQYVLHASIKHEDNKNPTDASKTKIIQPPSSYGTGSSAGKTNPPVNPTIKVTAAIPSPLQNTNPAPSTFPNPSVASPAFPNSSTSNPSTAPASASPLASTLKPSTANDTNGSSSSSSSNPRTSSPLASNAENKPPVAQQSPPVLLPTLPPIQTTTIQTSREVAPPPSSINSNRAASPFRPTSVSPQPSSPTKSLLFGARLDAIILREHSNIPNIVMQCTSQVENFGLNLQGIYRVPSSSARVNMLRSQFENNPLLQLHTPEDYENDVHAVADLLKIFFRELREPLIPDNHQRDFIDAGNVEDESRRRDAVHRAINDLPDANYSTIRHLTIHLAKIKENSDVNKMSTNNLAIIWGPTIIKQATIPEISSFSRTIEILIDYCFTIFDYD
notes: Rga7, F-BAR protein and Rho2 GAP of Schizosaccharomyces pombe; FL Rga7 in pET21a; also called Rga7-6His; not shown: His6, C-terminal, kept
